Substitutions are numbered along the chain they refer to.

Assay [1] concerns the target T1, BMP-7 (R&D system cat. #354-BP/CF) (UniProt P18075 293-431).
T1 construct: Bought protein
T1 sequence (looked up): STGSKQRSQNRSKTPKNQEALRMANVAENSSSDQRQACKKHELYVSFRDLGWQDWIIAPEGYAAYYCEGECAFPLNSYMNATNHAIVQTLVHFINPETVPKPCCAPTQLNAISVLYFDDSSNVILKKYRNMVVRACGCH
Briefly: solid phase ELISA, wells coated with 200 ng BMP7. The protocol: (§1) The indicated amounts of VHHs were incubated with wells coated with ~200 ng BMP6, 200 ng BMP7 or no BMPs (PBS). After several washes, bound VHHs were detected with a rabbit anti-VHH serum and a Donkey anti-rabbit antibody coupled to a peroxidase. The amount of converted OPD (Absorbance at 490 nm; A 490 nm) is proportional to the amount of bound VHHs.
(§2) MaxiSorb plate wells were coated overnight at 4° C., with the antigens in PBS. After blocking of the wells with 4% marvel in PBS, they were incubated with VHH or VHH-fused to M13 phages in the presence of 2% Marvel. The wells were washed with PBS-tween, and bound phages were detected by incubation with a mouse Monoclonal antibody against M13 phage coupled to HRP. Bound VHH were detected by incubation with a rabbit anti-VHH polyclonal serum and a goat anti-rabbit coupled to HRP. The amount of HRP was developed by the addition of OPD. The reactions were stopped by the addition of H_2SO_4 and measured at 490 nm.
(In general: ELISA stands for enzyme-linked immunosorbent assay.)

The target of assay [2] is T2, BMP-6 (R&D systems cat. #507-BP/CF) (human, UniProt P22004 382-513, limits assumed).
T2 construct: Bought protein; also called recombinant human BMP-6
T2 sequence (looked up): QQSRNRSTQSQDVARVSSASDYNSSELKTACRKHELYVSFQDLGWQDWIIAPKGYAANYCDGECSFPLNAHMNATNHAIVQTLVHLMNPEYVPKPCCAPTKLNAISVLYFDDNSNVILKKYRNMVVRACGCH
Briefly: solid phase ELISA, wells coated with 200 ng BMP. Here is the method:
as §1, §2

Assay [3] has as its target T2, BMP-6 (R&D systems cat. #507-BP/CF). Briefly: solid phase ELISA, wells coated with ~200 ng BMP6. Here is the method:
as §1, §2

Assay [4] has the same target. Briefly: SPR, VHH coupled to CM5 chip, BMP injected.
In assay [5] the target is T1, BMP-7 (R&D system cat. #354-BP/CF). Briefly: SPR, VHH coupled to CM5 chip, BMP injected. On the technique in general: Surface plasmon resonance follows binding to a sensor surface in real time, without labels.
For assay [6] the target is unchanged. Description: binding test to cognate antigen, method not described.
The target in assay [7] is T2, BMP-6 (R&D systems cat. #507-BP/CF). Description: ELISA, 100 ng BMP6 coated, serial dilutions, read at 490 nm. The source says:
FIG. 7A-7B show the binding properties of the fusion proteins according to the invention which bind to a growth factor or growth factor inhibitor and to a biomaterial. Fusion proteins according to the invention are composed of the VHH according to the invention binding to a growth factor (indicated in the figure as "VHH-6-F2") and a VHH binding to a biomaterial (indicated in the figure as "MA"). […] The fusion proteins (indicated in the figure as "F") were constructed by genetic fusion of a VHH binding to BMP6 and a VHH binding to hydroxyapatite. To achieve binding to the growth factor BMP6 (FIG. 7A), 100 ng of BMP6 was coated into wells of a maxisorb plate. Serial dilutions of the VHH which binds to BMP6 (VHH-6-F2) and fusion proteins according to the invention (F) were added to the wells. Bound VHHs (VHH-6-F2) and fusion proteins (F) were detected with labelled polyclonal antibodies.

B1: VHH-7-B8 (VHH)
VHH: EVQLVESGGGLVRAGGSLRLSCAASGRTFSGYVAGWFRQAPGKEREFVAAISWSGITYYGDSVKGRFTIARDNSKNGVYLQMNSLKPEDTAVYYCGAGKGYYKDYRGYDYWGQGTQVTVSS
notes: Llama VHH selected against BMP7; not shown: C-terminal Myc and His tags
Take B1: in assay [1], the binding result was “binds”.

B2: VHH-7-F11 (VHH)
VHH: B1 VHH with R13Q, I51S, A70S, S74A, G77T
notes: Llama VHH selected against BMP7; In SPR coupled to a CM5 chip by NHS chemistry; not shown: C-terminal Myc and His tags
With B2, the binding result is “no binding” in assay [2] and “binds” in assay [1].

B3: VHH-6-C2 (VHH)
VHH: EVQLVESGGGLVQVGGSLRLSCAASGRTSSMYSMGWFRQAPGKEREFVAAIGWRFGEKYYTNSVKGRFTISRDGAENTNTVYLQMNSLKPDDTAVYYCAADPDDASQYYSDWMKGYGMDYWGKGTLVTVSS
notes: Llama VHH selected against BMP6, cross-reactive with BMP7; not shown: C-terminal Myc and His tags
Turning to B3, the binding result in assay [3] and in assay [1] was “binds” each time.

B4: VHH-6-H1 (VHH)
VHH: EVQLVESGGGLVQAGGSLRLSCAASGSIFSIVSMGWYRQVPGKQRELVAAITSAGSTNYGDSAKGRFTISRDNAKNTVYLQMNSLKPEDTAVYYCNSYGLGYPGDYGIDYWGKGTLVTVSS
notes: Llama VHH selected against BMP6; In SPR coupled to a CM5 chip by NHS chemistry; also called monohead VHH-6-H1; not shown: C-terminal Myc and His tags
Regarding B4, the binding result in assay [4] and in assay [5] was “binds” throughout.

B5: VHH-6-D6 (VHH)
VHH: EVQLVESGGGLVQAGGSLRLSCAASGRTFSSYGMGWFRQAPGKERDFVAAVSKSGGSTYYTASVKGRFTVSRDNAKNTVYLQMNSLKPEDTAVYYCAAGRWESGSRPGSTWYGERTYDYWGQGTQVTVSS
notes: Llama VHH selected against BMP6, made in E. coli periplasm; not shown: C-terminal Myc and His tags
Turning to B5, in assay [3], the binding result is recorded as “binds”.

B6: VHH-6-C1 (VHH)
VHH: B5 VHH with K53R, S57N, V70I, V79M, P107L
notes: Llama VHH selected against BMP6; not shown: C-terminal Myc and His tags
On to B6, for which the binding result in assay [3] is on record as “binds”.

B7: Glyco-VHH (glycosylated VHH-7-G7 with an N-glycosylation site introduced in loop5, made in yeast) (VHH)
VHH: EVQLVESGGGLVQAGGSLRLSCAASGFTFDDYIIGWFRQAPGKEREGISCISSSDGSTYYADSVTGRFTISSDNANNTVYLQMNSLKPEDTAVYYCAAHAKWPYGTYSFRRCRRASFDSWGQGTQVTVSS
modifications: N-linked glycosyl group at the glycosylation site introduced in loop5 (position not given)
notes: Expressed in S. cerevisiae; also called mutated VHH
With B7, the binding result in assay [6] is listed as “binds”.

B8: VHH-6-F2 (VHH)
VHH: EVQLVESGGGFVQAGGSLRLSCAASGSIFSINAMGWYRQAPGKQRELVAAITSGGSTNYADSVKGRFTISRDNAKNTLYLQMNSLKPEDTAVYYCSAVTILLTSGGWGSGNDYWGQGTQVTVSS
notes: as for B6
In the case of B8, in assay [7], the binding result is “binds”.

The record behind these values is US10961303 (UNIVERSITEIT TWENTE, dated 2021).
